Reference: article PMC7214467 (Nature Communications, 2020)

Assays:
[1] = molecular target: HLA-A2/NY-ESO-1 peptide complex on tumor cells (Homo sapiens, HLA-A2 (A*02:01 assumed), …); assay: cell-based or functional assay
CD3 on Jurkat cells = molecular target: T1, CD3 on Jurkat cells (Homo sapiens, endogenous on Jurkat …, UniProt P07766); assay: flow cytometry on cells; Jurkat cells; titrated from 30 μg/mL in 3-fold dilutions, on ice; detected with PE goat anti-human lambda; details: one partner purified
T1 construct: CD3 of the T cell receptor complex on Jurkat cells; On cells CD3ε stands with the other CD3 chains and the TCR; also called CD3+ Jurkat cells; source: endogenous, on Jurkat cells (ATCC TIB-152)
T1 sequence (P07766 23-207): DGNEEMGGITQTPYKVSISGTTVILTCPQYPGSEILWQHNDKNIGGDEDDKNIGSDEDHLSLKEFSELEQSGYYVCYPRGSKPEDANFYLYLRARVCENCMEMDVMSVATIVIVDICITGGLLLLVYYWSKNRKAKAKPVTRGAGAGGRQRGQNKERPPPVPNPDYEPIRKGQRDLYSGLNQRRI

| T cell redirected lysis of peptide-pulsed Saos-2 cells by primary T cells, 48 h, EC50 [1] [nM] | binding result (CD3 on Jurkat cells) | T cell redirected lysis of peptide-pulsed 624.38 cells by primary T cells, 48 h, EC50 [1] [nM] | Binder |
| --- | --- | --- | --- |
| ~1 | binds | – | TCR/CD3 IgG BsAb with the 1G4_122 NY-ESO-1 TCR (stabilized Cα/Cβ subunit) and the chimeric SP-34 anti-CD3 arm (bispecific antibody, V domains shown, soluble 1G4_122 TCR α chain; Cα with the stabilizing mutations as in m1; soluble 1G4_122 TCR β chain; Cβ with the stabilizing mutations as in m2; detected with goat anti-human lambda; Two heavy chains joined by the 7.8.60 Fc heterodimer design; also called IgG-like BsAb; TCR/CD3 bifunctional; source: CHO K1SV KO, transient, secreted, purified (mAbSure resin, preparative size exclusion); copies: + …) VH: EVQLVESGGGLVQPKGSLKLSCAASGFTFNTYAMNWVRQAPGKGLEWVARIRSKYNNYATYYADSVKDRFTISRDDSQSLLYLQMNNLKTEDTAMYYCVRHGNFGNSYVSWFAYWGQGTLVTVSA VL: QAVVTQESALTTSPGETVTLTCRSSTGAVTTSNYANWVQEKPDHLFTGLIGGTNKRAPGVPARFSGSLIGDKAALTITGAQTEDEAIYFCALWYSNLWVFGGGTKLTVL |
| ~0.03 | binds | ~0.1 | TCR/CD3 Tandem BsAb with the stabilized 1G4_122 NY-ESO-1 TCR and the chimeric SP-34 anti-CD3 Fab (bispecific antibody, V domains shown, soluble 1G4_122 TCR α chain; Cα with the stabilizing mutations as in m1; soluble 1G4_122 TCR β chain; Cβ with the stabilizing mutations as in m2; detected with goat anti-human lambda; also called tandem Fab BsAb; tandem Fab; copies: + + +) VH: EVQLVESGGGLVQPKGSLKLSCAASGFTFNTYAMNWVRQAPGKGLEWVARIRSKYNNYATYYADSVKDRFTISRDDSQSLLYLQMNNLKTEDTAMYYCVRHGNFGNSYVSWFAYWGQGTLVTVSA VL: QAVVTQESALTTSPGETVTLTCRSSTGAVTTSNYANWVQEKPDHLFTGLIGGTNKRAPGVPARFSGSLIGDKAALTITGAQTEDEAIYFCALWYSNLWVFGGGTKLTVL |
